# In the supplement of paper PMC7877785:
# ± gives the uncertainty stated by the source.
# Assay: self-splicing fitness, log relative to wild type (ln ratio); higher = more splicing; Tetrahymena group I intron in knt gene, E. coli kanamycin selection, DiMSum; sequences stand for … in CUCUCU…GGAGGGAAAAGUUAUCAGGCAUGCACCUGGUAGCUAGUCUUUAAACCAAUAGAUUGCAUCGGUUUAAAAGGCAAGACCGUCAAAUUGCGGGAAAGGGGUCAACAGCCGUUCAGUACCAAGUCUCAGGGGAAACUUUGAGAUGGCCUUGCAAAGGGUAUGGUAAUAAGCUGACGGACAUGGUCCUAACCACGCAGCCAAGUCCUAAGUCAACAGAUCUUCUGUUGAUAUGGAUGCAGUUCACAGACUAAAUGUCGGUCGGGGAAGAUGUAUUCUUCUCAUAAGAUAUAGUCGGACCUCUCCUUAAUGGGAGCUAGCGGAUGAAGUGAUGCAACACUGGAGCCGCUGGGAACUAAUUUGUAUGCGAAAGUAUAUUGAUUAGUUUUGGAGUACUCGUGGUCG
# How it was run: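 Colonies from six replicate transformations of E. coli BL21(DE3) were pooled and amplicon-sequenced on an Illumina HiSeq 2500. The library placed an intron with all eight P1ex-region nucleotides randomised inside the knt kanamycin-resistance gene on pET-22b(+), and cells grew overnight at 37°C or 30°C on LB agar with or without 25 μg/mL kanamycin (plus 100 μg/mL carbenicillin, 50 μM IPTG, 0.2% rhamnose). Fitness is the DiMSum error-weighted combination of wild-type-normalised replicate fold changes, kanamycin versus none.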
Sequence,self-splicing fitness (ln) (30 °C),self-splicing fitness (ln) (37 °C)
GCUCAGCAAUAUUACGCUCU,-1.09 ± 0.082,0.39 ± 0.12
GCUCAGCAAUAUUACGGGAA,-0.173 ± 0.099,0.252 ± 0.16
GCUCAGCAAUAUUACGGGAG,-2.46 ± 0.12,-1.22 ± 0.11
GCUCAGCAAUAUUACGGUAG,-2.79 ± 0.26,-1.89 ± 0.21
GCUCAGCAAUAUUACGGUGU,-1.3 ± 0.062,0.0463 ± 0.076
GCUCAGCAAUAUUACGUAUG,-2.44 ± 0.076,-1.62 ± 0.091
GCUCAGCAAUAUUACGUAUU,-0.945 ± 0.053,-0.23 ± 0.068
GCUCAGCAAUAUUACGUCUG,-2.36 ± 0.094,-1.99 ± 0.11
GCUCAGCAAUAUUACGUGUU,-0.538 ± 0.055,0.555 ± 0.064
GCUCAGCAAUAUUACGUUCC,-0.532 ± 0.062,-0.507 ± 0.088
GCUGAGCAAUAUUACGAAGG,–,-1.52 ± 0.28
GCUGAGCAAUAUUACGACAA,-3.36 ± 0.45,-1.07 ± 0.39
GCUGAGCAAUAUUACGACCC,–,-0.524 ± 0.39
GCUGAGCAAUAUUACGAGCA,-1.54 ± 0.14,-1.34 ± 0.15
GCUGAGCAAUAUUACGAUCA,–,-1.55 ± 0.35
GCUGAGCAAUAUUACGAUUU,-1.04 ± 0.08,-0.288 ± 0.096
GCUGAGCAAUAUUACGCCUC,-1.67 ± 0.42,-1.53 ± 0.49
GCUGAGCAAUAUUACGGAUC,-1.43 ± 0.087,-0.415 ± 0.12
GCUGAGCAAUAUUACGGUGG,-3.32 ± 0.22,-3.95 ± 0.37
GCUGAGCAAUAUUACGUCUU,-1.91 ± 0.11,-1.17 ± 0.15
GCUGAGCAAUAUUACGUGGA,-2.09 ± 0.19,-2.9 ± 0.31
GCUGAGCAAUAUUACGUGUG,-3.29 ± 0.12,-1.9 ± 0.1
GCUGAGCAAUAUUACGUUUA,-2.35 ± 0.24,-1.87 ± 0.25
GCUUAGCAAUAUUACGAAAA,-1.6 ± 0.29,-1.12 ± 0.28

Sequence,self-splicing fitness (ln) (30 °C),self-splicing fitness (ln) (37 °C)
GCUUAGCAAUAUUACGAAGU,-3.26 ± 0.21,-2.27 ± 0.21
GCUUAGCAAUAUUACGAAUC,-0.244 ± 0.12,-0.0191 ± 0.15
GCUUAGCAAUAUUACGAAUU,-1.06 ± 0.076,-0.24 ± 0.097
GCUUAGCAAUAUUACGACCU,-0.423 ± 0.1,0.203 ± 0.14
GCUUAGCAAUAUUACGACUG,-1.67 ± 0.1,-0.937 ± 0.11
GCUUAGCAAUAUUACGAUAG,-2.11 ± 0.096,-0.174 ± 0.097
GCUUAGCAAUAUUACGCCCG,-1.04 ± 0.15,-0.534 ± 0.2
GCUUAGCAAUAUUACGCCCU,-1.54 ± 0.11,-0.719 ± 0.13
GCUUAGCAAUAUUACGCCGG,-1.97 ± 0.2,-1.44 ± 0.22
GCUUAGCAAUAUUACGCGUG,-1.74 ± 0.1,-1.64 ± 0.11
GCUUAGCAAUAUUACGCUCC,-0.928 ± 0.15,-1.09 ± 0.26
GCUUAGCAAUAUUACGGACC,-1.17 ± 0.17,0.79 ± 0.22
GCUUAGCAAUAUUACGGCCU,-1.05 ± 0.18,-1.57 ± 0.25
GCUUAGCAAUAUUACGGGAG,-2.42 ± 0.18,-1.29 ± 0.18
GCUUAGCAAUAUUACGGGUA,-1.43 ± 0.15,-0.513 ± 0.12
GCUUAGCAAUAUUACGUAGC,-3.12 ± 0.26,-1.75 ± 0.26
GCUUAGCAAUAUUACGUAGU,-1.2 ± 0.092,-0.156 ± 0.11
GCUUAGCAAUAUUACGUCCA,-1.72 ± 0.14,-0.697 ± 0.14
GCUUAGCAAUAUUACGUUAC,-2.56 ± 0.18,-1.88 ± 0.19
GCUUAGCAAUAUUACGUUAG,-1.56 ± 0.13,-1.1 ± 0.15
GCUUAGCAAUAUUACGUUCC,-0.313 ± 0.19,-0.542 ± 0.23
GCUUAGCAAUAUUACGUUCG,-0.857 ± 0.095,-0.972 ± 0.11
GCUUAGCAAUAUUACGUUUC,-1.2 ± 0.099,-0.547 ± 0.11
GGAAAGCAAUAUUACGAAAC,-1.37 ± 0.13,-0.659 ± 0.17
